Data: patent publication US20220098252, “INHIBITOR OF DUX4 AND USES THEREOF” (OSPEDALE SAN RAFFAELE S.R.L., published 2022)

How the values were obtained:
MATR3 fragment 1-287 = target: T1, MATR3 fragment 1-287 (Homo sapiens, UniProt P43243 SEQ:1-287); assay: EMSA; MATR3 1-287 alone unable to bind DNA; lacks nucleic acid binding domains; conditions: tags: GST (pGEX2tk)
T1 sequence: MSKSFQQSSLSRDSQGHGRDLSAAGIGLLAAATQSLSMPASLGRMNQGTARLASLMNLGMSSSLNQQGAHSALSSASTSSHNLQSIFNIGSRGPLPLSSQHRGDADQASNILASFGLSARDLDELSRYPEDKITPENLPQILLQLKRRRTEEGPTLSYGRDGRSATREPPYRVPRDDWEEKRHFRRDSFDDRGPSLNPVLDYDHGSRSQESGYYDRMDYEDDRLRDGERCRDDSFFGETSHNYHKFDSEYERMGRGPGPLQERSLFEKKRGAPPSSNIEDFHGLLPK
Description: (§1) Twenty femtomoles of probes were incubated with 15 pmol of in vitro purified 6xHis DUX4 dbd and/or GST-MATR3 1-287 proteins in the presence of 1 μg of poly(dI:dC) and 5 μg of salmon sperm DNA in a buffer containing 10 mM Tris, pH 7.5, 0.1 mM EDTA, 1 mM DTT, 100 mM KCl, 3 mM MgCl2, 12% glycerol.
(§2) After 2 h incubation at RT, DNA-protein complexes were separated by electrophoresis in 8% (w/v) acrylamide gels formed in 0.5×TBE (Sigma-Aldrich) and run in the same buffer at 5 mA at 4° C. Then, the gels were transferred on a Biodyne nylon membrane (Thermo Scientific) at 380 mA for 45 min at 4° C. The membrane was crosslinked at 120 mJ/cm2 with an UV-Stratalinker and the biotin-labelled DNA was detected by chemiluminescence using the LightShift Chemiluminescent EMSA Kit (Thermo Scientific) following the manufacturer's protocol.

[1] = target: DUX4 DNA-binding domain (dbd) (Homo sapiens, UniProt Q6RFH8 SEQ:1-150); assay: EMSA; binding inhibited by recombinant MATR3 1-287; conditions: tags: 6xHis-GB1 (pET-GB1)
Description: as §1, §2

Sequence of DUX4 DNA-binding domain (dbd) (Q6RFH8 1-150): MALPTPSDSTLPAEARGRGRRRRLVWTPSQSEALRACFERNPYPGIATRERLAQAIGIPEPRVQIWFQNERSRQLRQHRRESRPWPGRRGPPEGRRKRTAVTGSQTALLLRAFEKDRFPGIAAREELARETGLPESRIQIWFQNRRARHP

B1: FRG1 Peak 1 EMSA probe (dsDNA)
DNA 1: AATTGTAGCTATAATTCAATCATCTAAATTG
DNA 2: CAATTTAGATGATTGAATTATAGCTACAATT
binding result (MATR3 fragment 1-287): no binding
binding result [1]: binds
